In patent US20100260765A1 (AstraZeneca / MedImmune, published 2010):

What was measured:
human KDR [1] = target: T1, human KDR (human, UniProt P35968 20-1356); assay: cell-based or functional assay
human KDR [2] = target: T1, human KDR; assay: cell-based or functional assay; remark: listed apart in the source
human KDR [3] = target: T1, human KDR; assay: cell-based or functional assay; remark: listed apart in the source
[4] = target: T2, mouse KDR (Flk-1)/Fc (Cat. #443-KD/CF, R&D Systems, Inc.) (mouse, UniProt P35918 20-762); assay: ELISA, Flk-1 coat 5 ug/mL, antibody 1 ug/mL
T2 construct: Bought reagent; also called mouse VEGFR2; KDR mouse ortholog; not shown: Fc of the bought fusion protein
T2 sequence (P35918 20-762 limits assumed): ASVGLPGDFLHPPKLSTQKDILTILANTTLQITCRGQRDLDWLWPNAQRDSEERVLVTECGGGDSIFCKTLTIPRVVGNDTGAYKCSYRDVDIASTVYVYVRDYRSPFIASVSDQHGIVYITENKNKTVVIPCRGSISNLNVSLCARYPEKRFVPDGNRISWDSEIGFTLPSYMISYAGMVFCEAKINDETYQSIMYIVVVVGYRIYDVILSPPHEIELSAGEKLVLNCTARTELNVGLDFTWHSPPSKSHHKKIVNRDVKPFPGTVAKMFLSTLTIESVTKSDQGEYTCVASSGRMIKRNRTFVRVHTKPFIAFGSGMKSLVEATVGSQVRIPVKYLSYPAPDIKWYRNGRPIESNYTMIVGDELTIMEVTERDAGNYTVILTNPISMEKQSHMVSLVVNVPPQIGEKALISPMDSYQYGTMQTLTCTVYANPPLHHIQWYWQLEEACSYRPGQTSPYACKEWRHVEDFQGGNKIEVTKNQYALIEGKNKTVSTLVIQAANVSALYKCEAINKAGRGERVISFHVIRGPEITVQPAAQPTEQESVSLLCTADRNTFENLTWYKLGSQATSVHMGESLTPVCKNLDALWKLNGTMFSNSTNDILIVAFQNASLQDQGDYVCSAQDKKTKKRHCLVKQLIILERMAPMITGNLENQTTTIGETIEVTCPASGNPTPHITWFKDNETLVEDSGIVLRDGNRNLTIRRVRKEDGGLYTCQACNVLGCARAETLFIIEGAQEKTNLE
Description: (§1) The cross-reactivity of purified antibodies was tested against KDR mouse ortholog KDR mouse ortholog (mouse VEGFR2, or Flk-1) and human VEGFR1 (Flt-1). The ability of the antibodies to bind soluble KDR Ig4-7 domain and to the entire KDR extracellular domain (ECD) was also measured.
(§2) Cross-reactivity experiments were carried out and measured using an ELISA based assay as described in Example 6. […] Antibody controls included IgG1 and IgG4 (Sigma-Aldrich, Cat. #15154 and #14639, respectively).

[5] = target: T2, mouse KDR (Flk-1)/Fc (Cat. #443-KD/CF, …); assay: ELISA, Flk-1 coat 5 ug/mL, antibody 0.1 ug/mL
Description: as §1, §2

[6] = target: T3, whole KDR-ECD (Cat. # 676490, Calbiochem) (human, UniProt P35968 20-764); assay: ELISA, KDR-ECD coat 5 ug/mL, antibody 1 ug/mL
T3 construct: extracellular domain; Bought soluble protein; also called soluble KDR; VEGF Receptor 2 D1-7
T3 sequence (P35968 20-764): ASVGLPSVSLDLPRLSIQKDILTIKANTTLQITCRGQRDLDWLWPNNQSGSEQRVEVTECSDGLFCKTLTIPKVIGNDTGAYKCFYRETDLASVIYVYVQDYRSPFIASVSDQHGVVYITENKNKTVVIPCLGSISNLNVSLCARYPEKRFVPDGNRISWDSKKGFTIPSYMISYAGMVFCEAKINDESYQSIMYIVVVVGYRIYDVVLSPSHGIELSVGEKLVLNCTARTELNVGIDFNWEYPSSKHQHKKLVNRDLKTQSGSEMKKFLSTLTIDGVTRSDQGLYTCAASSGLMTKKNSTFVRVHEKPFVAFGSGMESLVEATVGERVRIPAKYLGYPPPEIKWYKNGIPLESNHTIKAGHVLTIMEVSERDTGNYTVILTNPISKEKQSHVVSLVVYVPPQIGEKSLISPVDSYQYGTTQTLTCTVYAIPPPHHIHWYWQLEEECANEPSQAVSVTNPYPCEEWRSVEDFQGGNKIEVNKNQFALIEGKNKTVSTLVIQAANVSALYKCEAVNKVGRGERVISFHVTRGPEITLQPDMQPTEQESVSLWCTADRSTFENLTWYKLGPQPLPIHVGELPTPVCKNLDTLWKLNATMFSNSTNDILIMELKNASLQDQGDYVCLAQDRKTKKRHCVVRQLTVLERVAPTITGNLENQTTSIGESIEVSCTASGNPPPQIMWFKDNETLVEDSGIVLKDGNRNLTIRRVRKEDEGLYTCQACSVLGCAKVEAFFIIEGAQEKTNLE
Description: as §1, §2

[7] = target: T2, mouse KDR (Flk-1)/Fc (Cat. #443-KD/CF, …); assay: ELISA, Flk-1 coat 5 ug/mL, antibody 0.01 ug/mL
Description: as §1, §2

[8] = target: T3, whole KDR-ECD (Cat. # 676490, …); assay: ELISA, KDR-ECD coat 5 ug/mL, antibody 0.1 ug/mL
Description: as §1, §2

[9] = target: T3, whole KDR-ECD (Cat. # 676490, …); assay: ELISA, KDR-ECD coat 5 ug/mL, antibody 0.01 ug/mL
Description: as §1, §2

soluble KDR Ig4-7 domain [10] = target: T4, soluble KDR Ig4-7 domain (human, UniProt P35968 328-764); assay: ELISA, KDR Ig4-7 coat (1:1 diln.), antibody 1 ug/mL
T4 construct: domain: Ig4-7 domain; also called b-KDRIg4-7-myc-his; Ig4-7 domain of KDR; not shown: myc-his tag of the pSecTag construct
T4 sequence (P35968 328-764): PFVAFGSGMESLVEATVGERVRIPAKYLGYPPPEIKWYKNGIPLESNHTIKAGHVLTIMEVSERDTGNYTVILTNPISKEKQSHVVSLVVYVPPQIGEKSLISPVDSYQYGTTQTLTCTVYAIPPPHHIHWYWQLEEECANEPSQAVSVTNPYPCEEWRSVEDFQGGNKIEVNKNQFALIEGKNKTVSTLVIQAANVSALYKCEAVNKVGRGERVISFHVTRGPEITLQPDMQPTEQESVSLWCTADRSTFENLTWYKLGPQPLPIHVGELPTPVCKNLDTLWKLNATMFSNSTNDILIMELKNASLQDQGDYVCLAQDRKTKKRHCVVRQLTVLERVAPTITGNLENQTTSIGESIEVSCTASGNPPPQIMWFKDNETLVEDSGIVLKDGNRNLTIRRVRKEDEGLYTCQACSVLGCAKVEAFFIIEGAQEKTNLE
Description: as §1, §2

soluble KDR Ig4-7 domain [11] = target: T4, soluble KDR Ig4-7 domain; assay: ELISA, KDR Ig4-7 coat (1:1 diln.), antibody 0.1 ug/mL
Description: as §1, §2

cynomolgus KDR = target: T5, cynomolgus KDR (cynomolgus monkey, UniProt A0A2K5VE63 20-1356); assay: FACS on Cyno KDR/293T transfectants, antibody 5 ug/mL
T5 construct: whole, on cells; also called Cyno KDR
T5 sequence (A0A2K5VE63 entry or part of it): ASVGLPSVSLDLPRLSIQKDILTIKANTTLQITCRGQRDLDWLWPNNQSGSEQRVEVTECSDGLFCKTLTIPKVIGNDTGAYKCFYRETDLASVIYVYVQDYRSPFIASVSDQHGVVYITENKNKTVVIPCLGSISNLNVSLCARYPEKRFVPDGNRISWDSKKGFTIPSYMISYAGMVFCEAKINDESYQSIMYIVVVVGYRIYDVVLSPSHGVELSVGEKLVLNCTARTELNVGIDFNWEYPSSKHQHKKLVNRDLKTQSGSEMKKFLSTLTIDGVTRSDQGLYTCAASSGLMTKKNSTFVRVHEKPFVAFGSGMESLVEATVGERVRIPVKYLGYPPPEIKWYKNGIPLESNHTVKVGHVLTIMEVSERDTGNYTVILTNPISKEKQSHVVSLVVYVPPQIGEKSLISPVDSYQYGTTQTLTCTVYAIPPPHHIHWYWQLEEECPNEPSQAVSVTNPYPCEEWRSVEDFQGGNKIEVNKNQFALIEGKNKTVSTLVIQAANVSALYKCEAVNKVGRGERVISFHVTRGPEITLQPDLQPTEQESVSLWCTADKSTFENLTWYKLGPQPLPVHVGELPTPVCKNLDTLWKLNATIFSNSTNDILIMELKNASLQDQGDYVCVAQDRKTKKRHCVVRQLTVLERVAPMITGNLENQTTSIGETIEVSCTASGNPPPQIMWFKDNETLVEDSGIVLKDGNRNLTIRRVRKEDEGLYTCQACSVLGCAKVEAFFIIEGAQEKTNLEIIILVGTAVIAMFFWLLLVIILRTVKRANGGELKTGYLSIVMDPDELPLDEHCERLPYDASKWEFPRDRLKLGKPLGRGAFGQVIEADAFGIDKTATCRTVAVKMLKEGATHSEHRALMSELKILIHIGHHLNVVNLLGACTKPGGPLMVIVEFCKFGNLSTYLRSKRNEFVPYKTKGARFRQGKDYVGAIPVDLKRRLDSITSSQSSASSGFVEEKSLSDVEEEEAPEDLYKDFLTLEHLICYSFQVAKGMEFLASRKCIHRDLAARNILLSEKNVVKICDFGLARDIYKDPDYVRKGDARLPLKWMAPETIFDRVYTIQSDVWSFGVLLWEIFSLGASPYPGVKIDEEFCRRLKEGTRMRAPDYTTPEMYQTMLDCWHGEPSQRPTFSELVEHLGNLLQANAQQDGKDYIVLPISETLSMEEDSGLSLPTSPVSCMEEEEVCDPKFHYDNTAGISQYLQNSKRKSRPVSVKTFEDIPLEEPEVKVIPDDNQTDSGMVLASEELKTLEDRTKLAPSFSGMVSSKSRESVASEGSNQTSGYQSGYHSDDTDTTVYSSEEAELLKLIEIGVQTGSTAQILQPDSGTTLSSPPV
Description: The binding of purified antibodies to cell-bound cynomolgus KDR (with parental cells as negative control) was tested by FACS analysis in this assay.
Cynomolgus KDR was cloned in 3 pieces. One piece was PCR amplified from cynomolgus lung cDNA, and the remaining two pieces were PCR amplified from cynomolgus kidney cDNA. The three PCR products were inserted into pCR3.1 Bid vector. […] Transfected cells were seeded at 50,000 cells/well and incubated with 5 μg/mL of candidate antibody for one hour at 4° C. The cells were then washed and incubated with secondary antibody (Cy5-conjugated goat anti-human antibody, or Cy5-conjugated rabbit anti-goat antibody, plus 7-Amino-Actinomycin (7AAD)) for 15 minutes at 4° C. Binding between cynomolgus KDR and purified antibody was detected by FACS analysis.

soluble KDR Ig4-7 domain [12] = target: T4, soluble KDR Ig4-7 domain; assay: ELISA, KDR Ig4-7 coat (1:1 diln.), antibody 0.01 ug/mL
Description: as §1, §2

human KDR [13] = target: T1, human KDR; assay: FACS titration of purified antibody on HUVEC cells (FACS Kd)
Description: The binding affinities of the purified antibodies for endogenously-expressed KDR in HUVEC cells was measured. HUVEC cells were seeded at 150,000 cells/well and incubated with titrations of purified antibody for 4 hours at 4° C. The cells were then washed and incubated with goat anti-human IgG-Fc-Cy5+5 μg/mL 7-Amino-Actinomycin (7AAD) for 30 minutes at 4° C. Bound KDR was detected using FACS analysis.

human KDR [14] = target: T1, human KDR; assay: FACS competition on 293T/human KDR transfectants; antibody 5 ug/mL first, then competitor VEGF165 50 ng/mL; bound VEGF165 detected
Description: (§3) Transfected cells were then seeded at 50,000 cells/well and incubated with 5 μg/mL of candidate antibody for one hour at 4° C. […] After washing, the cells were incubated with Cy5-conjugated rabbit anti-goat antibody plus 7AAD for 15 minutes at 4° C.

human KDR [15] = target: T1, human KDR; assay: FACS competition on 293T/human KDR transfectants; antibody 5 ug/mL first, then competitor VEGF165 50 ng/mL; inhibition of VEGF binding
Description: as §3

T1 sequence (P35968 20-1356): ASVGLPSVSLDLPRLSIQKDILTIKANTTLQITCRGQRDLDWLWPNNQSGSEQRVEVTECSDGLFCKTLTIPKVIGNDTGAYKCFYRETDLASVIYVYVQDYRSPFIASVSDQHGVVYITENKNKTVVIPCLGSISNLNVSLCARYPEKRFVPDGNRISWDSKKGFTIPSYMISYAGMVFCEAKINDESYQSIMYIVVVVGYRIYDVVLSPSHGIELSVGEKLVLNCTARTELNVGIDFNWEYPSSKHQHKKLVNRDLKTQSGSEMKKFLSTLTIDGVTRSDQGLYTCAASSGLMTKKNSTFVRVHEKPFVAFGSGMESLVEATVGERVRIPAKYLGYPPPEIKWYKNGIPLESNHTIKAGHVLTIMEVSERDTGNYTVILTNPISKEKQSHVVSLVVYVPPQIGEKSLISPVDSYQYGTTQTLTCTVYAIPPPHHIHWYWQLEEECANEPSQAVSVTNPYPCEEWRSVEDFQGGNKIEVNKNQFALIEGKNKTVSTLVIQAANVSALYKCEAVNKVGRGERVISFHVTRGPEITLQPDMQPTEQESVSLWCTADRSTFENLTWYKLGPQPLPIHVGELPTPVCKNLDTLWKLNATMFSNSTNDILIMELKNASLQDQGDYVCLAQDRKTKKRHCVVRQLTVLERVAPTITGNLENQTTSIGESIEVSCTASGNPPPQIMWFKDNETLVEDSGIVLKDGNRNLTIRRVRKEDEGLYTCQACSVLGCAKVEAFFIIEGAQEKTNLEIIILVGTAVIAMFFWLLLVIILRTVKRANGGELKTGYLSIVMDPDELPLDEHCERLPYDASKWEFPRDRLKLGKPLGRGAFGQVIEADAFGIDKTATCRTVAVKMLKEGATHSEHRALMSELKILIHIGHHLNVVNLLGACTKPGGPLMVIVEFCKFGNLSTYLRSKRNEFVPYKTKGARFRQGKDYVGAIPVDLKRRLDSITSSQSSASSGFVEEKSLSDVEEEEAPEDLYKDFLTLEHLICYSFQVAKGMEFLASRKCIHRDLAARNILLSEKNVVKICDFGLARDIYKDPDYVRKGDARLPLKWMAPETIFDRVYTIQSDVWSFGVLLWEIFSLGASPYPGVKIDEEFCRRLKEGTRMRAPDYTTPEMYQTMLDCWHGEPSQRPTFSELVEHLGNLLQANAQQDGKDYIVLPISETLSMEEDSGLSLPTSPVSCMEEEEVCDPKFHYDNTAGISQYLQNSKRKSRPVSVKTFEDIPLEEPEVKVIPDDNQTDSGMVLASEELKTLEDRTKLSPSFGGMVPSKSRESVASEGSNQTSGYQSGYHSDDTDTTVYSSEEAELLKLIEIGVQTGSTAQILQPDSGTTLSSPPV

| Binder | KDR tyrosine phosphorylation in HUVEC, EC50 (nM), Average (human KDR [1]) | KDR tyrosine phosphorylation in HUVEC, EC50 (nM), N = 1 (human KDR [1]) | KDR tyrosine phosphorylation in HUVEC, EC50 (nM), N = 2 (human KDR [1]) | KDR tyrosine phosphorylation in HUVEC, Maximum Inhibition at 100 nM (% Inhibition), Average (human KDR [1]) | KDR tyrosine phosphorylation in HUVEC, Maximum Inhibition at 100 nM (% Inhibition), N = 1 (human KDR [1]) | KDR tyrosine phosphorylation in HUVEC, Maximum Inhibition at 100 nM (% Inhibition), N = 2 (human KDR [1]) | 6-keto Prostaglandin F1α release, EC50 (nM), Average (human KDR [3]) | 6-keto Prostaglandin F1α release, EC50 (nM), N = 1 (human KDR [3]) | 6-keto Prostaglandin F1α release, EC50 (nM), N = 2 (human KDR [3]) | 6-keto Prostaglandin F1α release, Maximum Inhibition (% Inhibition), Average (human KDR [3]) | 6-keto Prostaglandin F1α release, Maximum Inhibition (% Inhibition), N = 1 (200 nM) (human KDR [3]) | 6-keto Prostaglandin F1α release, Maximum Inhibition (% Inhibition), N = 2 (333 nM) (human KDR [3]) | ELISA reading [4] | ELISA reading [5] | ELISA reading [6] | ELISA reading [7] | ELISA reading [8] | HUVEC survival, Maximum Inhibition at 50 nM (% Inhibition), Average (human KDR [2]) | HUVEC survival, Maximum Inhibition at 50 nM (% Inhibition), N = 1 (human KDR [2]) | HUVEC survival, Maximum Inhibition at 50 nM (% Inhibition), N = 2 (human KDR [2]) | other results |
| --- | --- | --- | --- | --- | --- | --- | --- | --- | --- | --- | --- | --- | --- | --- | --- | --- | --- | --- | --- | --- | --- |
| 33B1 (antibody, V domains shown, Fully human monoclonal antibody from a XenoMouse hybridoma (IgG2 or IgG4 strain), purified) VH: EVQLVESGGGLVKPGGSLRLSCAASGFTFSSYTMNWVRQAPGKGLEWVSFIDSRSSYIYYADSVKGRFTISRDNAKNSLYLQMNSLRAEDTAVYYCSKDDWFEELWGQGTLVTVSS VL: DIQMTQSPSSLSASVGDRVTITCRASQGIRNDLGWYQQKPGKAPKRLIYATSSLQSGVPSRFSGSGSGTEFTLTISSLQPEDFATYYCLHHNSFPWTFGQGTKVEIK | 1.1 nM | 1.2 nM | 1.1 nM | 86% | 86% | 86% | 3840 nM | 17 nM | 7670 nM | 53% | 31% | 76% | 3.12 | 2.1 | 1.99 | 0.753 | 0.178 | 57% | 55% | 59% | ELISA reading [9]: 0.072; ELISA reading (soluble KDR Ig4-7 domain [10]): 3.04; ELISA reading (soluble KDR Ig4-7 domain [11]): 2.14; FACS Geometric Mean Fluorescence (cynomolgus KDR): 108; ELISA reading (soluble KDR Ig4-7 domain [12]): 0.609; Kd (human KDR [13]): 0.2 nM; FACS Geometric Mean Fluorescence (bound VEGF165) (human KDR [14]): 81; % Inhibition (human KDR [15]): 40% |
| 24B3 (antibody, V domains shown, Fully human monoclonal antibody from a XenoMouse hybridoma (IgG2 or IgG4 strain), purified) VH: EVQLVESGGGLVKPGGSLRLSCAASGFTFSTYSMNWVRQAPGKGLEWVSFISGRSSYIYYADSVKGRFTISRDNAKNSLYLQMNSLRAEDTAVYYCSKDDWFEELWGQGTLVTVSS VL: DIQMTQSPSSLSASVGDRVTITCRASQGIRSDLGWYQQKPGKAPKRLIYATSSLQSGVPSRFSGSGSGTEFTLTISSLQPEDFATYYCLQHNRYPWTFGQGTKVEIK | 2.2 nM | 2.1 nM | 2.3 nM | 81% | 78% | 84% | 12.1 nM | 8.1 nM | 16.2 nM | 54% | 37% | 72% | 3.39 | 2.75 | 3.02 | 1.58 | 0.304 | 90% | 97% | 82% | ELISA reading [9]: 0.09; ELISA reading (soluble KDR Ig4-7 domain [10]): 3.47; ELISA reading (soluble KDR Ig4-7 domain [11]): 2.8; FACS Geometric Mean Fluorescence (cynomolgus KDR): 68.4; ELISA reading (soluble KDR Ig4-7 domain [12]): 1.45; Kd (human KDR [13]): 0.8 nM; FACS Geometric Mean Fluorescence (bound VEGF165) (human KDR [14]): 97; % Inhibition (human KDR [15]): 27% |

Continued, in another order:

| KDR tyrosine phosphorylation in HUVEC, EC50 (nM), Average (human KDR [1]) | KDR tyrosine phosphorylation in HUVEC, EC50 (nM), N = 1 (human KDR [1]) | KDR tyrosine phosphorylation in HUVEC, EC50 (nM), N = 2 (human KDR [1]) | KDR tyrosine phosphorylation in HUVEC, Maximum Inhibition at 100 nM (% Inhibition), Average (human KDR [1]) | KDR tyrosine phosphorylation in HUVEC, Maximum Inhibition at 100 nM (% Inhibition), N = 1 (human KDR [1]) | KDR tyrosine phosphorylation in HUVEC, Maximum Inhibition at 100 nM (% Inhibition), N = 2 (human KDR [1]) | 6-keto Prostaglandin F1α release, EC50 (nM), Average (human KDR [3]) | 6-keto Prostaglandin F1α release, EC50 (nM), N = 1 (human KDR [3]) | 6-keto Prostaglandin F1α release, EC50 (nM), N = 2 (human KDR [3]) | 6-keto Prostaglandin F1α release, Maximum Inhibition (% Inhibition), Average (human KDR [3]) | 6-keto Prostaglandin F1α release, Maximum Inhibition (% Inhibition), N = 1 (200 nM) (human KDR [3]) | 6-keto Prostaglandin F1α release, Maximum Inhibition (% Inhibition), N = 2 (333 nM) (human KDR [3]) | ELISA reading [4] | ELISA reading [5] | ELISA reading [6] | ELISA reading [7] | ELISA reading [8] | Binder | HUVEC survival, Maximum Inhibition at 50 nM (% Inhibition), Average (human KDR [2]) | HUVEC survival, Maximum Inhibition at 50 nM (% Inhibition), N = 1 (human KDR [2]) | HUVEC survival, Maximum Inhibition at 50 nM (% Inhibition), N = 2 (human KDR [2]) | other results |
| --- | --- | --- | --- | --- | --- | --- | --- | --- | --- | --- | --- | --- | --- | --- | --- | --- | --- | --- | --- | --- | --- |
| 1.9 nM | 2 nM | 1.9 nM | 75% | 74% | 77% | 3.2 nM | 3.2 nM | 3.2 nM | 56% | 45% | 67% | 3.29 | 2.59 | 2.15 | 1.17 | 0.096 | 29D4 (antibody, V domains shown, Fully human monoclonal antibody from a XenoMouse hybridoma (IgG2 or IgG4 strain), purified) VH: QLQLQESGPGLVKPSETLSLTCTVSGGSISSRSNYWGWIRQPPGKGLEWIGTIYYSGHTYYNPSLKSRVSISVDTSKNQFSLKLSSVTATDTALYYCARQQLVLYYFEYWGQGTLVTVSS VL: not shown | 92% | 89% | 95% | ELISA reading [9]: 0.089; ELISA reading (soluble KDR Ig4-7 domain [10]): 0.082; ELISA reading (soluble KDR Ig4-7 domain [11]): 0.078; FACS Geometric Mean Fluorescence (cynomolgus KDR): 115; ELISA reading (soluble KDR Ig4-7 domain [12]): 0.08; Kd (human KDR [13]): 1 nM; FACS Geometric Mean Fluorescence (bound VEGF165) (human KDR [14]): 116; % Inhibition (human KDR [15]): 11% |
| 1.8 nM | 1.7 nM | 1.9 nM | 75% | 71% | 79% | 4.5 nM | 4.4 nM | 4.6 nM | 48% | 42% | 54% | 2.62 | 2 | 1.93 | 0.802 | 0.132 | 32F4 (antibody, V domains shown, Fully human monoclonal antibody from a XenoMouse hybridoma (IgG2 or IgG4 strain), purified) VH: QLQLQESGPGLVKPSGTLSLSCTVSGGSISSRSDYWGWIRQPPGKGLEWIGTIYYSGNTFYNPSLKSRVTISVDTSKKQFSLKLSSVTAADTAVYYCARQQLVLYYFDYWGQGTLVTVSS VL: EIVLTQSPGTLSLSPGERATLSCRTSQSVSSSYLAWYQQKPGQAPRLLIYGASSRATGVPDRFSGSGSGTDFSLTISRLEPEDFAVYYCQQYGSSPPLTFGGGTKVEIK | 92% | 91% | 94% | ELISA reading [9]: 0.09; ELISA reading (soluble KDR Ig4-7 domain [10]): 0.114; ELISA reading (soluble KDR Ig4-7 domain [11]): 0.079; FACS Geometric Mean Fluorescence (cynomolgus KDR): 105; ELISA reading (soluble KDR Ig4-7 domain [12]): 0.076; Kd (human KDR [13]): 1.8 nM; FACS Geometric Mean Fluorescence (bound VEGF165) (human KDR [14]): 112; % Inhibition (human KDR [15]): 14% |
